In patent publication US20240317847A1 (Bayer, published 2024):
Changes are numbered by the printed parent chain. Read-outs that look alike come from different tables or passages of the source. Blank lines part the entries; values can stand above or below the binder they belong to.

Columns and labels:
[1] = biological target: T1, human IL-11 (human, UniProt P20809 22-199); assay: Tri-complex ELISA, hIL-11 + mIL-11Ra-Fc + hgp130-Fc, inhibition of complex formation
T1 construct: Invigate recombinant protein; biotinylated when immobilized in the Di-complex ELISA; also called hIL11; hIL-11
T1 sequence: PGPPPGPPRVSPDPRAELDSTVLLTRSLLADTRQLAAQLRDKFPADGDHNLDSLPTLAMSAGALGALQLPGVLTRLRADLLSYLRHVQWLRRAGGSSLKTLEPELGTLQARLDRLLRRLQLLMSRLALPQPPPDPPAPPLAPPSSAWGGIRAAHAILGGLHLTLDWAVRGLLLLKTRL
Procedure: In the Tri-complex ELISA format IL-11 antibodies are tested for their ability to inhibit the formation of a complex consisting of murine or human gp130-Fc fusion protein, with murine or human IL-11, and a murine IL11RA-Fc fusion protein. The assay format was adapted according to FIG. 18 (a, b), depending on whether murine or human IL-11 IgG antibodies were tested.
Bispecific antibodies were subjected to the experimental assay procedure described in Example 19 and IC50 [M], respectively efficacy (%) were calculated accordingly.

[2] = biological target: T2, human IL2Ra (human, UniProt P01589 22-240, limits assumed); assay: ELISA on coated IL2Ra, signal ratio to isotype control
T2 construct: coated on the ELISA plate; also called IL-2 receptor alpha
T2 sequence (looked up): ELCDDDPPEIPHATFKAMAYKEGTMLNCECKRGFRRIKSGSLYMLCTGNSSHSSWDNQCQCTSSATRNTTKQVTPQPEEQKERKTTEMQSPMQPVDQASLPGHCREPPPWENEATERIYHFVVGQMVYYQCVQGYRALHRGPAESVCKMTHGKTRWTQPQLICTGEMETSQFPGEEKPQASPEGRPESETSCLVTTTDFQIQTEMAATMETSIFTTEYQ
Procedure: IL2RA (Peprotech, Germany, #200-02RC) was coated at 1 or 0 μg/ml (buffer only control) in 30 μl coating buffer (Candor, #113500) per well on a 384 well microtiter plate (Maxisorb, Nunc, #460518) over night at 4-8° C. After two washes with 50 μl/well washing buffer (PBS+0.05% Tween, pH 7.4), the plates were incubated for two hours at room temperature with 50 μl/well SmartBlock (Candor, #113500). After blocking, the plates were washed three times with washing buffer. Then, a dilution series of the respective antibody (1E-7 [M] down to 2E-13 [M]) in PBS+0.05% Tween, 10% SmartBlock were added in 30 μl to the microtiter plate and incubated for 90 min at room temperature. After three additional washes, 30 μl anti mouse IgG HRP-conjugated antibody (Biotechne, HAF007), diluted 1:1000 in PBS+0.05% Tween (pH 7.4), were added per well and incubated for one hour. […] Relative fluorescence was measured with a microtiter plate reader at 535/590 nm.
Bispecific antibodies were subjected to the experimental assay procedure described in Example 20. Ratios of the signals generated at an antibody concentration of 1E-07 [M] by the respective bispecific antibody versus those of an isotype control antibody were calculated and are shown in Table E29. […]

[3] = biological target: T1, human IL-11; assay: Tri-complex ELISA, hIL-11 + mIL-11Ra-Fc + hgp130-Fc, inhibition of complex formation; remark: listed apart in the source
[4] = biological target: T3, human IL-11 (Invigate, e.g., lot #C121021-19) (human, UniProt P20809 22-199); assay: Di-complex ELISA: biotinylated human IL-11 on streptavidin plate, antibody titrated against 2 nM canine IL11RA-human-Fc (competitor)
T3 construct: Bought protein; also called hIL-11; hIL11
T3 sequence: T1 sequence
Procedure: (§1) In the Di-complex ELISA format anti IL-11 antibodies are tested for the ability to interfere with the formation of complexes consisting of immobilized murine IL-11 (Invigate, e.g., lot #C210819-09) or human IL-11 (Invigate, e.g., lot #C121021-19), and murine IL11RA-Fc fusion proteins or canine IL11RA-human-Fc fusion protein (FIG. 17a, b).
(§2) The assay is performed using streptavidin coated microtiter plates (Greiner bio-one, #781997). In a first step, 10 nM biotinylated mouse IL-11 (Invigate, Germany, e.g., lot #C210819-09) or human IL-11 (Invigate, Germany, e.g., lot #C121021-19) is coated in 25 μl PBS on the plate at 4° C. overnight. Next day, the plate is washed three times with 50 μl PBST and then blocked with 50 μl SmartBlock (Candor, #113125) for one hour at room temperature (RT). After additional three washes with PBST, 25 μl of a mixture of the murine anti IL-11 antibody and recombinant canine IL11RA-Fc fusion protein (Sino Biological, #70078-D02H) in PBS-T, 10% Smartblock are added simultaneously to the plate and incubated for one hour at RT. […] After three additional washes with PBS-T, 25 μl anti-human-POD (Sigma, #A0170) in PBS-T, 10% Smartblock is added and incubated for 1 hour at RT. After a final three washes with PBS-T, 25 μl AmplexRed (Fisher Scientific, A12222), 1/1000 in PBS, 0,003% H₂O₂, is added as substrate and incubated for 15 min at RT in the dark. Then, the fluorescence is measured with a plate reader at 535/595 nm. Signals from dose responses were used to calculate IC50 values (GraphPad Prism). Efficacy was calculated as [(signal measured at lowest antibody concentration−signal measured at the highest antibody concentration)×100] divided by (signal measured at lowest antibody concentration−signal measured in the absence of IL11Ra).

[5] = biological target: T4, murine IL-11 (Invigate, e.g., lot #C210819-09) (mouse, UniProt P47873 22-199); assay: Di-complex ELISA: biotinylated murine IL-11 on streptavidin plate, antibody titrated against 2 nM canine IL11RA-human-Fc (competitor)
T4 construct: Bought protein; biotinylated where captured on streptavidin plates; also called mIL-11; mIL11
T4 sequence: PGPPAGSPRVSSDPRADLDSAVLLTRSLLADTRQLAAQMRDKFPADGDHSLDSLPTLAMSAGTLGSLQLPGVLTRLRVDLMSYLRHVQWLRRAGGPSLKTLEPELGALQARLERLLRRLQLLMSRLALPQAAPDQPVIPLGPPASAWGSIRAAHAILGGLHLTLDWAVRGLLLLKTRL
Procedure: as §1, §2

B3: TPP-18087 (antibody, mouse IgG1, V domains shown)
VH: EVQLLESGGGLVQPGGSLRLSCAASGFTFSHYDMNWLRQAPGKGLEWVGVISYDGSNKFYADFVKGRFTISRDNSKNTLYLQMNSLRAEDTAVYYCARTPGSHFDYWGQGTLVTVSS
VL: QSVLTQPPSASGTPGQRVTISCSGSSSNIGNNAVNWYQQLPGTAPKLLIYYDDLLPSGVPDRFSGSKSGTSASLAISGLRSEDEADYYCSAWDDSLNGVVFGGGTKLTVLG
notes: mIgG1, Lambda
Efficacy (%) [4]: 10.7%
Efficacy (%) [5]: 13.4%

B4: TPP-19528 (antibody, mouse IgG1, V domains shown)
VH: EVQLLESGGGLVQPGGSLRLSCAASGFTFSIYAMSWVRQAPGKGLEWVSSISDTGDRTYYADSVKGRFTISRDNSKNTLYLQMNSLRAEDTAVYYCARSNWGSLDYWGQGTLVTVSS
VL: B3 VL with N31S, A33Y, N35Y, S90A, N97S, V99R
notes: mIgG1, Lambda
Efficacy (%) [4]: 57%
IC50 [4]: 3 nM
Efficacy (%) [5]: 79%
IC50 [5]: 24 nM

More lines, now with the values ahead:

Efficacy (%) [1]: 98.5%
IC50 [1]: 0.696 nM
binding result [2]: no binding (tested: 1E-07 M antibody)
B1: TPP-29603 (bispecific antibody, IgG1)
chain 1: QVQLVESGGGVVQPGRSLRLSCAASGFTFSHYDMHWVRQAPGKGLEWVAVISYHGSVKFYADSVKGRFTISRDNSKNTLYLQMNSLRAEDTAVYYCARTPGFHFDYWGQGTLVTVSSGGGGSGGGGSGGGGSQSVLTQPPSASGTPGQRVTISCSGSSSNIGSNYVSWYQQLPGTAPKLLIYYDDLRPSGVPDRFSGSKSGTSASLAISGLRSEDEADYYCSAWDDSLSGVVFGGGTKLTVLGGGGSGGGGSGGGGSGVECPPCPAPPVAGPSVFIFPPKPKDVLTITLTPKVTCVVVDISKDDPEVQFSWFVDDVEVHTAQTQPREEQFNSTFRSVSELPIMHQDWLNGKEFKCRVNSAAFPAPIEKTISKTKGRPKAPQVYTIPPCKEQMAKDKVSLWCMITDFFPEDITVEWQWNGQPAENYKNTQPIMDTDGSYFVYSKLNVQKSNWEAGNTFTCSVLHEGLHNHHTEKSLSHSPGK
chain 2: EVQLLESGGGLVQPGGSLRLSCAASGFTFSSYGMHWVRQAPGKGLEWVAVISYDGSYKYYADSVKGRFTISRDNSKNTLYLQMNSLRAEDTAVYYCAAGVPDYWGQGTLVTVSSGGGGSGGGGSGGGGSQSVLTQPPSASGTPGQRVTISCSGSSSNIGSDYDVHWYQQLPGTAPKLLIYSNEERPSGVPDRFSGSKSGTSASLAISGLRSEDEADYYCSAWDSSLSGPVFGGGTKLTVLGGGGSGGGGSGGGGSGVECPPCPAPPVAGPSVFIFPPKPKDVLTITLTPKVTCVVVDISKDDPEVQFSWFVDDVEVHTAQTQPREEQFNSTFRSVSELPIMHQDWLNGKEFKCRVNSAAFPAPIEKTISKTKGRPKAPQVCTIPPPKEQMAKDKVSLSCAITDFFPEDITVEWQWNGQPAENYKNTQPIMDTDGSYFVVSKLNVQKSNWEAGNTFTCSVLHEGLHNHHTEKSLSHSPGK
notes: scFv-kih-mIgG1; bispecific comprising CDRs of TPP-29528 and TPP-29519

Efficacy (%) [3]: 94.7%
IC50 [3]: 1 nM
B2: TPP-29528 (antibody, mouse IgG1)
heavy: EVQLLESGGGLVQPGGSLRLSCAASGFTFSSYGMHWVRQAPGKGLEWVAVISYDGSYKYYADSVKGRFTISRDNSKNTLYLQMNSLRAEDTAVYYCAAGVPDYWGQGTLVTVSSAKTTPPSVYPLAPGSAAQTNSMVTLGCLVKGYFPEPVTVTWNSGSLSSGVHTFPAVLQSDLYTLSSSVTVPSSTWPSETVTCNVAHPASSTKVDKKIVPRDCGCKPCICTVPEVSSVFIFPPKPKDVLTITLTPKVTCVVVDISKDDPEVQFSWFVDDVEVHTAQTQPREEQFNSTFRSVSELPIMHQDWLNGKEFKCRVNSAAFPAPIEKTISKTKGRPKAPQVYTIPPPKEQMAKDKVSLTCMITDFFPEDITVEWQWNGQPAENYKNTQPIMDTDGSYFVYSKLNVQKSNWEAGNTFTCSVLHEGLHNHHTEKSLSHSPGK
light: QSVLTQPPSASGTPGQRVTISCSGSSSNIGSDYDVHWYQQLPGTAPKLLIYSNEERPSGVPDRFSGSKSGTSASLAISGLRSEDEADYYCSAWDSSLSGPVFGGGTKLTVLGQPKSSPSVTLFPPSSEELETNKATLVCTITDFYPGVVTVDWKVDGTPVTQGMETTQPSKQSNNKYMASSYLTLTARAWERHSSYSCQVTHEGHTVEKSLSRADCS
notes: mIgG1, Lambda

Efficacy (%) [3]: 81.3%
IC50 [3]: 2.4 nM
B5: TPP-29519 (antibody, mouse IgG1)
heavy: QVQLVESGGGVVQPGRSLRLSCAASGFTFSHYDMHWVRQAPGKGLEWVAVISYHGSVKFYADSVKGRFTISRDNSKNTLYLQMNSLRAEDTAVYYCARTPGFHFDYWGQGTLVTVSSAKTTPPSVYPLAPGSAAQTNSMVTLGCLVKGYFPEPVTVTWNSGSLSSGVHTFPAVLQSDLYTLSSSVTVPSSTWPSETVTCNVAHPASSTKVDKKIVPRDCGCKPCICTVPEVSSVFIFPPKPKDVLTITLTPKVTCVVVDISKDDPEVQFSWFVDDVEVHTAQTQPREEQFNSTFRSVSELPIMHQDWLNGKEFKCRVNSAAFPAPIEKTISKTKGRPKAPQVYTIPPPKEQMAKDKVSLTCMITDFFPEDITVEWQWNGQPAENYKNTQPIMDTDGSYFVYSKLNVQKSNWEAGNTFTCSVLHEGLHNHHTEKSLSHSPGK
light: QSVLTQPPSASGTPGQRVTISCSGSSSNIGSNYVSWYQQLPGTAPKLLIYYDDLRPSGVPDRFSGSKSGTSASLAISGLRSEDEADYYCSAWDDSLSGVVFGGGTKLTVLGQPKSSPSVTLFPPSSEELETNKATLVCTITDFYPGVVTVDWKVDGTPVTQGMETTQPSKQSNNKYMASSYLTLTARAWERHSSYSCQVTHEGHTVEKSLSRADCS
notes: mIgG1, Lambda
